According to the supplement of paper PMC11246515:
± gives the standard deviation of the averaged measurements.

Experiment: total protein half-life in vivo (active degradation + dilution); higher = more stable protein
[1] = E. coli NCM3722 delta-clpP, growth: N-lim chemostat, doubling time 6 h
[2] = E. coli NCM3722 delta-hslV, growth: N-lim chemostat, doubling time 6 h
[3] = E. coli NCM3722 delta-lon, growth: N-lim chemostat, doubling time 6 h
[4] = E. coli NCM3722 delta-smpB, growth: N-lim chemostat, doubling time 6 h
[5] = wild type E. coli NCM3722, growth: C-lim chemostat, doubling time 3 h
[6] = wild type E. coli NCM3722, growth: C-lim chemostat, doubling time 6 h
[7] = wild type E. coli NCM3722, growth: C-lim chemostat, doubling time 12 h
[8] = wild type E. coli NCM3722, growth: N-lim chemostat, doubling time 6 h
[9] = wild type E. coli NCM3722, growth: N-lim chemostat, doubling time 12 h
[10] = wild type E. coli NCM3722, growth: P-lim chemostat, doubling time 6 h
[11] = E. coli NCM3722 delta-clpP delta-lon delta-hslV, growth: N-lim chemostat, doubling time 6 h
[12] = wild type E. coli NCM3722, growth: P-lim chemostat, doubling time 12 h

| Sequence | total protein half-life in vivo [1] [h] | total protein half-life in vivo [2] [h] | total protein half-life in vivo [3] [h] | total protein half-life in vivo [4] [h] | total protein half-life in vivo [5] [h] | total protein half-life in vivo [6] [h] | total protein half-life in vivo [7] [h] | total protein half-life in vivo [8] [h] | total protein half-life in vivo [9] [h] | total protein half-life in vivo [10] [h] | total protein half-life in vivo [11] [h] | total protein half-life in vivo [12] [h] |
| --- | --- | --- | --- | --- | --- | --- | --- | --- | --- | --- | --- | --- |
| MGQVLPLVTRQGDRIAIVSGLRTPFARQATAFHGIPAVDLGKMVVGELLARSEIPAEVIEQLVFGQVVQMPEAPNIAREIVLGTGMNVHTDAYSVSRACATSFQAVANVAESLMAGTIRAGIAGGADSSSVLPIGVSKKLARVLVDVNKARTMSQRLKLFSRLRLRDLMPVPPAVAEYSTGLRMGDTAEQMAKTYGITREQQDALAHRSHQRAAQAWSDGKLKEEVMTAFIPPYKQPLVEDNNIRGNSSLADYAKLRPAFDRKHGTVTAANSTPLTDGAAAVILMTESRAKELGLVPLGYLRSYAFTAIDVWQDMLLGPAWSTPLALERAGLTMSDLTLIDMHEAFAAQTLANIQLLGSERFAREALGRAHATGEVDDSKFNVLGGSIAYGHPFAATGARMITQTLHELRRRGGGFGLVTACAAGGLGAAMVLEAE | 5.81 ± 0.29 | 5.7 ± 0.78 | 6.04 ± 0.061 | 5.43 ± 0.24 | 2.94 ± 0.14 | 6.16 ± 0.1 | 12.3 ± 1.9 | 6.23 ± 0.13 | 12 ± 0.41 | 6.44 ± 0.075 | – | – |
| MGRISSGGMMFKAITTVAALVIATSAMAQDDLTISSLAKGETTKAAFNQMVQGHKLPAWVMKGGTYTPAQTVTLGDETYQVMSACKPHDCGSQRIAVMWSEKSNQMTGLFSTIDEKTSQEKLTWLNVNDALSIDGKTVLFAALTGSLENHPDGFNFK [P0AD59] | 5.71 ± 1 | 6.18 ± 0.25 | 6.285 ± 0.011 | – | – | – | 9.68 ± 1.2 | 5.85 ± 0.58 | 12.6 ± 0.36 | 5.4 ± 0.3 | 5.34 ± 0.85 | 12.9 ± 1 |
| MGRKWANIVAKKTAKDGATSKIYAKFGVEIYAAAKQGEPDPELNTSLKFVIERAKQAQVPKHVIDKAIDKAKGGGDETFVQGRYEGFGPNGSMIIAETLTSNVNRTIANVRTIFNKKGGNIGAAGSVSYMFDNTGVIVFKGTDPDHIFEILLEAEVDVRDVTEEEGNIVIYTEPTDLHKGIAALKAAGITEFSTTELEMIAQSEVELSPEDLEIFEGLVDALEDDDDVQKVYHNVANL [P0A8A2] | 4.981 ± 0.0067 | 4.11 ± 0.057 | 5.18 ± 1 | 4.17 ± 0.56 | 2.95 ± 0.35 | 5.79 ± 1.9 | 9.45 ± 0.47 | 4.55 ± 0.5 | 7.06 ± 0.55 | 5.02 ± 0.079 | 5.2 ± 0.11 | 9.37 ± 0.61 |
| MGSDAKNLMSDGNVQIVKTGEVIGATQLTEGELIVEAGGRAENTVVTGAGWLKVATGGIAKCTQYGNNGTLSVSDGAIATDIVQSEGGAISLSTLATVNGRHPEGEFSVDKGYACGLLLENGGNLRVLEGHRAEKIILDQEGGLLVNGTTSAVVVDEGGELLVYPGGEASNCEINQGGVFMLAGKASDTLLAGGTMNNLGGEDSDTIVENGSIYRLGTDGLQLYSSGKTQNLSVNVGGRAEVHAGTLENAVIQGGTVILLSPTSADENFVVEEDRAPVELTGSVALLDGASMIIGYGAELQQSTITVQQGGVLILDGSTVKGDSVTFIVGNINLNGGKLWLITDAATHVQLKVKRLRGEGAICLQTSAKEISPDFINVKGEVTGDIHVEITDASRQTLCNALKLQPDEDGIGATLQPA | 4.73 ± 0.33 | 0.86 ± 0.11 | 1.12 ± 0.029 | 0.827 ± 0.0095 | 1.15 ± 0.029 | 1.56 ± 0.18 | 2.44 ± 0.65 | 1.07 ± 0.041 | 1.32 ± 0.13 | 1.73 ± 0.34 | 4.99 ± 0.55 | 3.47 ± 1.2 |
| MGSEISKKDITRLGFRSSLLQASFNYERMQAGGFTWAMLPILKKIYKDDKPGLSAAMKDNLEFINTHPNLVGFLMGLLISMEEKGENRDTIKGLKVALFGPIAGIGDAIFWFTLLPIMAGICSSFASQGNLLGPILFFAVYLLIFFLRVGWTHVGYSVGVKAIDKVRENSQMIARSATILGITVIGGLIASYVHINVVTSFAIDNTHSVALQQDFFDKVFPNILPMAYTLLMYYFLRVKKAHPVLLIGVTFVLSIVCSAFGIL | – | – | – | – | – | – | – | – | – | – | – | 4.67 |
| MGSQELQRKLGFWAVLAIAVGTTVGSGIFVSVGEVAKAAGTPWLTVLAFVIGGLIVIPQMCVYAELSTAYPENGADYVYLKNAGSRPLAFLSGWASFWANDAPSLSIMALAIVSNLGFLTPIDPLLGKFIAAGLIIAFMLLHLRSVEGGAAFQTLITIAKIIPFTIVIGLGIFWFKAENFAAPTTTAIGATGSFMALLAGISATSWSYTGMASICYMTGEIKNPGKTMPRALIGSCLLVLVLYTLLALVISGLMPFDKLANSETPISDALTWIPALGSTAGIFVAITAMIVILGSLSSCVMYQPRLEYAMAKDNLFFKCFGHVHPKYNTPDVSIILQGALGIFFIFVSDLTSLLGYFTLVMCFKNTLTFGSIIWCRKRDDYKPLWRTPAFGLMTTLAIASSLILVASTFVWAPIPGLICAVIVIATGLPAYAFWAKRSRQLNALS | – | – | – | – | 3.26 | – | – | – | – | – | – | – |
| MGSTRKGMLNVLIAAVLWGSSGVCAQYIMEQSQMSSQFLTMTRLIFAGLILLTLSFVHGDKIFSIINNHKDAISLLIFSVVGALTVQLTFLLTIEKSNAATATVLQFLSPTIIVAWFSLVRKSRPGILVFCAILTSLVGTFLLVTHGNPTSLSISPAALFWGIASAFAAAFYTTYPSTLIARYGTLPVVGWSMLIGGLILLPFYARQGTNFVVNGSLILAFFYLVVIGTSLTFSLYLKGAQLIGGPKASILSCAEPLSSALLSLLLLGITFTLPDWLGTLLILSSVILISMDSRRRARKINRPARHK | 6.18 | 4.72 ± 1.2 | 5.26 | – | – | 6.04 | 13.3 | 5.29 | 12.8 | 5.97 | – | 12 ± 0.74 |
| MGSTSSLYAAIDLGSNSFHMLVVREVAGSIQTLTRIKRKVRLAAGLNSENALSNEAMERGWQCLRLFAERLQDIPPSQIRVVATATLRLAVNAGDFIAKAQEILGCPVQVISGEEEARLIYQGVAHTTGGADQRLVVDIGGASTELVTGTGAQTTSLFSLSMGCVTWLERYFADRNLGQENFDAAEKAAREVLRPVADELRYHGWKVCVGASGTVQALQEIMMAQGMDERITLEKLQQLKQRAIHCGRLEELEIDGLTLERALVFPSGLAILIAIFTELNIQCMTLAGGALREGLVYGMLHLAVEQDIRSRTLRNIQRRFMIDIDQAQRVAKVAANFFDQVENEWHLEAISRDLLISACQLHEIGLSVDFKQAPQHAAYLVRNLDLPGFTPAQKKLLATLLLNQTNPVDLSSLHQQNAVPPRVAEQLCRLLRLAIIFASRRRDDLVPEMTLQANHELLTLTLPQGWLTQHPLGKEIIAQESQWQSYVHWPLEVH | 3.91 ± 0.1 | 3.77 ± 0.53 | 3.75 ± 0.87 | 3.64 ± 0.35 | 2.92 ± 0.24 | 5.11 ± 0.2 | 9.31 ± 0.75 | 3.94 ± 0.33 | 5.6 ± 0.23 | 5.28 ± 1 | 4.11 ± 0.81 | 11.3 ± 0.41 |
